Legend:
[1] = target: T1, cynomolgus CD16 expressed on CHO cells (cAg_36) (cynomolgus, UniProt Q8SPW2 17-254); experiment: flow cytometry on cyCD16 CHO cells (cAg_36), one-site fit of MFI, mean
T1 construct: whole, on cells; also called cyCD16
Protocol: (§1) After washing in FACS buffer, cells were incubated in 50 μL FACS buffer without antibodies or with titrated antibodies starting at a concentration of 1000 nM followed by elven 3-fold serial dilutions for 40-50 min on ice in the dark. […] After washing, binding was measured by flow cytometry and mean fluorescence intensities (MFI) of cell samples were calculated and corrected for background staining using control cells stained with secondary antibodies only.
(§2) Equilibrium dissociation constants (KD) of antibody binding were calculated by plotting MFI values and fitting a non-linear regression model for one-site binding to hyperbolic dose-response curves using GraphPad Prism.

[2] = target: T1, cynomolgus CD16 expressed on CHO cells …; experiment: flow cytometry on cyCD16 CHO cells (cAg_36), one-site fit of MFI, Exp. 2
Protocol: as §1, §2

[3] = target: T1, cynomolgus CD16 expressed on CHO cells …; experiment: flow cytometry on cyCD16 CHO cells (cAg_36), one-site fit of MFI, Exp. 3
Protocol: as §1, §2

[4] = target: T2, cynomolgus FOLR1 expressed on CHO cells (cAg_126) (cynomolgus, UniProt A0A2K5U044 25-234); experiment: flow cytometry on cyFOLR1 CHO cells (cAg_126), one-site fit of MFI, Exp. 3
T2 construct: whole, on cells; also called cyFOLR1
Protocol: (§3) To analyze binding of different antibody constructs to CHO cells transfected with human FOLR1 (cAg_125) and cynomolgus FOLR1 (cAg_126), 1-5×10⁵ were resuspended in 100 μL FACS buffer (PBS (BioWest, cat.: L0615-500) containing 2% heat-inactivated FCS (Invitrogen, cat.: 10500-064), and 0.1% sodium azide (Sigma, cat.: S8032_100G)) in round-bottom 96-well microtiter plates. After washing in FACS buffer, cells were incubated in 50 μL FACS buffer without antibodies or with titrated antibodies starting at a concentration of 1000 nM followed by eleven 3-fold serial dilutions for 40-50 min on ice in the dark. […] After washing, binding was measured by flow cytometry and mean fluorescence intensities (MFI) of cell samples were calculated and corrected for background staining using control cells stained with secondary antibodies only.
as §2, with “Binding of antibody constructs to huFOLR1-as well as cyFOLR1-transfected CHO cells was measured by flow cytometry. Equilibrium” for “Equilibrium”

[5] = target: T3, human FOLR1 expressed on CHO cells (cAg_125) (human, UniProt P15328 25-234); experiment: flow cytometry on huFOLR1 CHO cells (cAg_125), one-site fit of MFI, Exp. 2
T3 construct: whole, on cells; also called huFOLR1
Protocol: as §3
as §2, with “Binding of antibody constructs to huFOLR1-as well as cyFOLR1-transfected CHO cells was measured by flow cytometry. Equilibrium” for “Equilibrium”

[6] = target: T3, human FOLR1 expressed on CHO cells …; experiment: flow cytometry on huFOLR1 CHO cells (cAg_125), one-site fit of MFI, Exp. 3
Protocol: as §3
as §2, with “Binding of antibody constructs to huFOLR1-as well as cyFOLR1-transfected CHO cells was measured by flow cytometry. Equilibrium” for “Equilibrium”

[7] = target: T4, human CD16A (158F) expressed on CHO cells (cAg_34) (human, UniProt P08637 17-254); experiment: flow cytometry on huCD16A (158F) CHO cells (cAg_34), one-site fit of MFI, mean
T4 construct: also called huCD16A-transfected CHO cells
Protocol: as §1, §2

[8] = target: T5, human CD16A (158V) expressed on CHO cells (cAg_35) (human, UniProt P08637 17-254); experiment: flow cytometry on huCD16A (158V) CHO cells (cAg_35), one-site fit of MFI, mean
T5 construct: also called huCD16A (158V)
Protocol: as §1, §2

[9] = target: T4, human CD16A (158F) expressed on CHO …; experiment: flow cytometry on huCD16A (158F) CHO cells (cAg_34), one-site fit of MFI, Exp. 1
Protocol: as §1, §2

[10] = target: T4, human CD16A (158F) expressed on CHO …; experiment: flow cytometry on huCD16A (158F) CHO cells (cAg_34), one-site fit of MFI, Exp. 3
Protocol: as §1, §2

[11] = target: T5, human CD16A (158V) expressed on CHO …; experiment: flow cytometry on huCD16A (158V) CHO cells (cAg_35), one-site fit of MFI, Exp. 1
Protocol: as §1, §2

[12] = target: T5, human CD16A (158V) expressed on CHO …; experiment: flow cytometry on huCD16A (158V) CHO cells (cAg_35), one-site fit of MFI, Exp. 2
Protocol: as §1, §2

[13] = target: T5, human CD16A (158V) expressed on CHO …; experiment: flow cytometry on huCD16A (158V) CHO cells (cAg_35), one-site fit of MFI, Exp. 3
Protocol: as §1, §2

[14] = target: T3, human FOLR1 expressed on CHO cells …; experiment: flow cytometry on huFOLR1-transfected CHO cells (cAg_125), on ice, FITC goat anti-human IgG detection
Protocol: as §3

[15] = target: T2, cynomolgus FOLR1 expressed on CHO cells …; experiment: flow cytometry on cyFOLR1-transfected CHO cells (cAg_126), on ice, FITC goat anti-human IgG detection
Protocol: as §3

[16] = target: T4, human CD16A (158F) expressed on CHO …; experiment: flow cytometry on huCD16A (158F)-transfected CHO cells (cAg_34), on ice, FITC goat anti-human IgG detection
Protocol: as §1

[17] = target: T5, human CD16A (158V) expressed on CHO …; experiment: flow cytometry on huCD16A (158V)-transfected CHO cells (printed sAg_35), on ice, FITC goat anti-human IgG detection
Protocol: as §1

T3 sequence (P15328 25-234): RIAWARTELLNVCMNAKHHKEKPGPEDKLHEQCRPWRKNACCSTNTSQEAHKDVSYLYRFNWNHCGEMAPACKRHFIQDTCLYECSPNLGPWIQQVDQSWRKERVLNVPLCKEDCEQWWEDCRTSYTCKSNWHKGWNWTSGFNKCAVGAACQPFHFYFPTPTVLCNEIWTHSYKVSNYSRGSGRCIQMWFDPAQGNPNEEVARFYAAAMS
T5 sequence (P08637 17-254 F176V limits assumed): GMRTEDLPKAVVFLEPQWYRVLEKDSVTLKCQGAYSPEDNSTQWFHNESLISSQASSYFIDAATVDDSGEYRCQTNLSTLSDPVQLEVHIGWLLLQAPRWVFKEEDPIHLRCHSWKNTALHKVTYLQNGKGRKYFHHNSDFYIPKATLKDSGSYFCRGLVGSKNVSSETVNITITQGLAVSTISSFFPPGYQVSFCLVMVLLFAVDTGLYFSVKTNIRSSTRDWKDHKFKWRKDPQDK
T4 sequence (P08637 17-254 limits assumed): as the sequence (P08637 17-254 F176V limits assumed) above, with V160F counted along it
T1 sequence (Q8SPW2 17-254): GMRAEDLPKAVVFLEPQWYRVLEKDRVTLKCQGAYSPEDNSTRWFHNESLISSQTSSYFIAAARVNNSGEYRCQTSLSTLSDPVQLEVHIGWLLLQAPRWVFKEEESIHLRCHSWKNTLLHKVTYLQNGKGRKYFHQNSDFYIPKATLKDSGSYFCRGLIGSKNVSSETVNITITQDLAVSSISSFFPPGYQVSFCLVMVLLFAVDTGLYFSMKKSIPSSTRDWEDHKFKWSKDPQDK
T2 sequence (A0A2K5U044 entry or part of it): as the sequence (P15328 25-234) above, with I2T, W4R, R37K, A146P, H171Y counted along it

Row | Kd [1] | Kd [2] | Kd [3] | Kd [4] | Kd [5] | Kd [6] | Kd [7] | Kd [8] | Kd [9] | Kd [10] | Kd [11] | Kd [12] | Kd [13] | EC50 (read off the curve) [14] | EC50 (read off the curve) [15] | EC50 (read off the curve) [16] | EC50 (read off the curve) [17] | Binder
1 | 25.2 nM | 26.2 nM | 22.8 nM | 18.8 nM | 31.6 nM | 40.6 nM | 21.5 nM | 30.8 nM | 16 nM | 19.9 nM | 15.8 nM | 29.1 nM | 47.5 nM | ~40 nM | ~20 nM | ~20 nM | ~50 nM | scFv-IgAb_387 (FOLR1_1×CD16a3) (bispecific antibody, Chemically biotinylated (NHS-PEG4-biotin) in Example 22 only., Tetravalent bispecific scFv-IgAb; also called FOLR1×CD16A scFv-IgAb_387; FOLR1/CD16A scFv-IgAb_387; copies: 2 + 2) heavy: EVQLVESGGGVVQPGRSLRLSCSASGFTFSGYGLSWVRQAPGKGLEWVAMISSGGSYTYYADSVKGRFAISRDNAKNTLFLQMDSLRPEDTGVYFCARHGDDPAWFAYWGQGTPVTVSSASTKGPSVFPLAPSSKSTSGGTAALGCLVKDYFPEPVTVSWNSGALTSGVHTFPAVLQSSGLYSLSSVVTVPSSSLGTQTYICNVNHKPSNTKVDKKVEPKSCDKTHTCPPCPAPEFEGGPSVFLFPPKPKDTLMISRTPEVTCVVVAVSHEDPEVKFNWYVDGVEVHNAKTKPREEQYNSTYRVVSVLTVLHQDWLNGKEYKCKVSNKALPAPIEKTISKAKGQPREPQVYTLPPSREEMTKNQVSLTCLVKGFYPSDIAVEWESNGQPENNYKTTPPVLDSDGSFFLYSKLTVDKSRWQQGNVFSCSVMHEALHNHYTQKSLSLSPGGGGGSGGGGSGGGGSGGGGSGGGGSGGGGSSYELTQPLSVSVALGQTARITCGGNNIGSKSVHWYQQKPGQAPVLVIYQDKKRPSGIPERFSGSNSGNTATLTISRAQAGDEADYYCQVWDDYIVLFGCGTKLTVLGGSGGSGGSGGSGGSGGSGGSQVQLVQSGAEVKKPGASVKVSCKASGYTFTNYYMQWVRQAPGQCLEWMGIINPSGGVTSYAQKFQGRVTMTRDTSTSTVYMELSSLRSEDTAVYYCARGSAYYYDFADYWGQGTLVTVSSG light: DIQLTQSPSSLSASVGDRVTITCSVSSSISSNNLHWYQQKPGKAPKPWIYGTSNLASGVPSRFSGSGSGTDYTFTISSLQPEDIATYYCQQWSSYPYMYTFGQGTKVEIKRTVAAPSVFIFPPSDEQLKSGTASVVCLLNNFYPREAKVQWKVDNALQSGNSQESVTEQDSKDSTYSLSSTLTLSKADYEKHKVYACEVTHQGLSSPVTKSFNRGEC
2 | 32.8 nM | 31.7 nM | 28.2 nM | 14 nM | 24.4 nM | 29.3 nM | 26.2 nM | 43 nM | 22.1 nM | 27.1 nM | 22 nM | 43.3 nM | 63.7 nM | ~30 nM | ~10 nM | ~30 nM | ~60 nM | scFv-IgAb_381 (FOLR1_1×CD16a4) (bispecific antibody, also called FOLR1×CD16A scFv-IgAb_381) chain 1: EVQLVESGGGVVQPGRSLRLSCSASGFTFSGYGLSWVRQAPGKGLEWVAMISSGGSYTYYADSVKGRFAISRDNAKNTLFLQMDSLRPEDTGVYFCARHGDDPAWFAYWGQGTPVTVSSASTKGPSVFPLAPSSKSTSGGTAALGCLVKDYFPEPVTVSWNSGALTSGVHTFPAVLQSSGLYSLSSVVTVPSSSLGTQTYICNVNHKPSNTKVDKKVEPKSCDKTHTCPPCPAPEFEGGPSVFLFPPKPKDTLMISRTPEVTCVVVAVSHEDPEVKFNWYVDGVEVHNAKTKPREEQYNSTYRVVSVLTVLHQDWLNGKEYKCKVSNKALPAPIEKTISKAKGQPREPQVYTLPPSREEMTKNQVSLTCLVKGFYPSDIAVEWESNGQPENNYKTTPPVLDSDGSFFLYSKLTVDKSRWQQGNVFSCSVMHEALHNHYTQKSLSLSPGGGGGSGGGGSGGGGSGGGGSGGGGSGGGGSSYELTQPLSVSVALGQTARITCGGHNIGSKNVHWYQQKPGQAPVLVIYQDNKRPSGIPERFSGSNSGNTATLTISRAQAGDEADYYCQVWDNYNVLFGCGTKLTVLGGSGGSGGSGGSGGSGGSGGSQVQLVQSGAEVKKPGASVKVSCKASGYTFTSYYMHWVRQAPGQCLEWMGAIEPTYGSTSYAQKFQGRVTMTRDTSTSTVYMELSSLRSEDTAVYYCARGSAYYYDFADYWGQGTLVTVS chain 2: DIQLTQSPSSLSASVGDRVTITCSVSSSISSNNLHWYQQKPGKAPKPWIYGTSNLASGVPSRFSGSGSGTDYTFTISSLQPEDIATYYCQQWSSYPYMYTFGQGTKVEIKRTVAAPSVFIFPPSDEQLKSGTASVVCLLNNFYPREAKVQWKVDNALQSGNSQESVTEQDSKDSTYSLSSTLTLSKADYEKHKVYACEVTHQGLSSPVTKSFNRGEC
